Test results published in PMC5824745 (The Journal of Neuroscience, 2018).

Experiments:
[1] = biological target: T1, eukaryotic Initiation Factor 4E (eIF4E), wild type (mouse (endogenous in forebrain), UniProt P63073 1-217); assay: pull-down; cap-column pulldown: 500 ug forebrain lysate protein with 50 ul m7GDP agarose in buffer C (50 mM MOPS-KOH pH 7.4, 100 mM NaCl, 50 mM NaF, 0.5 mM EDTA, 0.5 mM EGTA, 0.1 mM GTP), 90 min at 4 C; eIF4E held by its ligand m7GDP; cap-bound fraction immunoblotted and quantified, normalised to input; conditions: partners not purified
T1 construct: also called WT; source: endogenous, WT mouse forebrain lysate

[2] = biological target: T2, eIF4E Ser209Ala (knock-in, 4Eki mice) (mouse (endogenous in forebrain), UniProt P63073 1-217, Ser209Ala); assay: as above; conditions: partners not purified
T2 construct: The mice are described in Gkogkas et al., 2014; also called Ser209Ala mutant; source: endogenous (knock-in allele), 4Eki mouse forebrain lysate

Gapdh, sequence (P16858 whole entry): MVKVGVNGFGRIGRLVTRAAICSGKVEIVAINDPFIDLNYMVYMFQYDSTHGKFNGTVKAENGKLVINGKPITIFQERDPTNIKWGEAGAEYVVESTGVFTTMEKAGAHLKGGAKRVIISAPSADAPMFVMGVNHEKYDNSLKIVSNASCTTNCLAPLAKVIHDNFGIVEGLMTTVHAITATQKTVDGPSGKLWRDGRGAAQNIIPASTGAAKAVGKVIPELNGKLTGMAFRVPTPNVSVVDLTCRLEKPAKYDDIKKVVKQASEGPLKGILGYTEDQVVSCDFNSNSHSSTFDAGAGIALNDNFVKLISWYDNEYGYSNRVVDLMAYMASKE

| Binder | cap-bound protein (arbitrary units, normalised to input) [1] [arbitrary units] | cap-bound protein (arbitrary units, normalised to input) [2] [arbitrary units] |
| --- | --- | --- |
| Eprs (natural protein, mouse (endogenous in forebrain), UniProt Q8CGC7 1-1512, looked up, Eprs (glutamyl-prolyl-tRNA synthetase), mouse, endogenous in forebrain; also called GAIT complex protein; source: endogenous, mouse forebrain lysate (WT or 4Eki)) MAALCLTVNAGNPPLEALLAVEHVKGDVSISVEEGKENLLRVSETVAFTDVNSILRYLARIATTSGLYGTNLMEHTEIDHWLEFSATKLSSCDRLTSAINELNHCLSLRTYLVGNSLTLADLCVWATLKGSAAWQEHLKQNKTLVHVKRWFGFLEAQQAFRSVGTKWDVSGNRATVAPDKKQDVGKFVELPGAEMGKVTVRFPPEASGYLHIGHAKAALLNQHYQVNFKGKLIMRFDDTNPEKEKEDFEKVILEDVAMLHIKPDQFTYTSDHFETIMKYAEKLIQEGKAYVDDTPAEQMKAEREQRTESKHRKNSVEKNLQMWEEMKKGSQFGQSCCLRAKIDMSSNNGCMRDPTLYRCKIQPHPRTGNKYNVYPTYDFACPIVDSIEGVTHALRTTEYHDRDEQFYWIIEALGIRKPYIWEYSRLNLNNTVLSKRKLTWFVNEGLVDGWDDPRFPTVRGVLRRGMTVEGLKQFIAAQGSSRSVVNMEWDKIWAFNKKVIDPVAPRYVALLKKEVVPVNVLDAQEEMKEVARHPKNPDVGLKPVWYSPKVFIEGADAETFSEGEMVTFINWGNINITKIHKNADGKITSLDAKLNLENKDYKKTTKITWLAESTHALSIPAVCVTYEHLITKPVLGKDEDFKQYINKDSKHEELMLGDPCLKDLKKGDIIQLQRRGFFICDQPYEPVSPYSCREAPCILIYIPDGHTKEMPTSGSKEKTKVEISKKETSSAPKERPAPAVSSTCATAEDSSVLYSRVAVQGDVVRELKAKKAPKEDIDAAVKQLLTLKAEYKEKTGQEYKPGNPSAAAVQTVSTKSSSNTVESTSLYNKVAAQGEVVRKLKAEKAPKAKVTEAVECLLSLKAEYKEKTGKDYVPGQPPASQNSHSNPVSNAQPAGAEKPEAKVLFDRVACQGEVVRKLKAEKASKDQVDSAVQELLQLKAQYKSLTGIEYKPVSATGAEDKDKKKKEKENKSEKQNKPQKQNDGQGKDSSKSQGSGLSSGGAGEGQGPKKQTRLGLEAKKEENLAEWYSQVITKSEMIEYYDVSGCYILRPWSYSIWESIKDFFDAEIKKLGVENCYFPIFVSQAALEKEKNHIEDFAPEVAWVTRSGKTELAEPIAIRPTSETVMYPAYAKWVQSHRDLPVRLNQWCNVVRWEFKHPQPFLRTREFLWQEGHSAFATFEEAADEVLQILELYARVYEELLAIPVVRGRKTEKEKFAGGDYTTTIEAFISASGRAIQGATSHHLGQNFSKMCEIVFEDPKTPGEKQFAYQCSWGLTTRTIGVMVMVHGDNMGLVLPPRVASVQVVVIPCGITNALSEEDREALMAKCNEYRRRLLGANIRVRVDLRDNYSPGWKFNHWELKGVPVRLEVGPRDMKSCQFVAVRRDTGEKLTIAEKEAEAKLEKVLEDIQLNLFTRASEDLKTHMVVSNTLEDFQKVLDAGKVAQIPFCGEIDCEDWIKKMTARDQDVEPGAPSMGAKSLCIPFNPLCELQPGAMCVCGKNPAKFYTLFGRSY | 1 | – |
| Gapdh (natural protein, Gapdh, mouse, endogenous in forebrain; also called GAIT complex protein; source: endogenous, mouse forebrain lysate (WT or 4Eki)) not shown | – | 0.775 |
| eIF4G (natural protein, mouse (endogenous in forebrain), UniProt Q6NZJ6 1-1600, looked up, eIF4G, mouse, endogenous in forebrain; detected with an antibody against eIF4G1 (Cell Signaling Technology 2498); also called eIF4G1; scaffolding protein of eIF4F; source: endogenous, mouse forebrain lysate (WT or 4Eki)) MNKAPQPTGPPPARSPGLPQPAFPPGQTAPVVFSTPQATQMNTPSQPRQGGFRSLQHFYPSRAQPPSSAASRVQSAAPARPGPAPHVYPAGSQVMMIPSQISYSASQGAYYIPGQGRSTYVVPTQQYPVQPGAPGFYPGASPTEFGTYAGAYYPAQGVQQFPASVAPAPVLMNQPPQIAPKRERKTIRIRDPNQGGKDITEEIMSGARTASTPTPPQTGGSLEPQPNGESPQVAVIIRPDDRSQGAAIGGRPGLPGPEHSPGTESQPSSPSPTPSPPPILEPGSESNLGVLSIPGDTMTTGMIPMSVEESTPISCETGEPYCLSPEPTLAEPILEVEVTLSKPIPESEFSSSPLQVSTALVPHKVETHEPNGVIPSEDLEPEVESSTEPAPPPLSPCASESLVPIAPTAQPEELLNGAPSPPAVDLSPVSEPEEQAKKVSSAALASILSPAPPVAPSDTSPAQEEEMEEDDDDEEGGEAESEKGGEDVPLDSTPVPAQLSQNLEVAAATQVAVSVPKRRRKIKELNKKEAVGDLLDAFKEVDPAVPEVENQPPTGSNPSPESEGSMVPTQPEETEETWDSKEDKIHNAENIQPGEQKYEYKSDQWKPLNLEEKKRYDREFLLGFQFIFASMQKPEGLPHITDVVLDKANKTPLRQLDPSRLPGINCGPDFTPSFANLGRPALSNRGPPRGGPGGELPRGPAGLGPRRSQQGPRKETRKIISSVIMTEDIKLNKAEKAWKPSSKRTAADKDRGEEDADGSKTQDLFRRVRSILNKLTPQMFQQLMKQVTQLAIDTEERLKGVIDLIFEKAISEPNFSVAYANMCRCLMALKVPTTEKPTVTVNFRKLLLNRCQKEFEKDKDDDEVFEKKQKEMDEAATAEERGRLKEELEEARDIARRRSLGNIKFIGELFKLKMLTEAIMHDCVVKLLKNHDEESLECLCRLLTTIGKDLDFAKAKPRMDQYFNQMEKIIKEKKTSSRIRFMLQDVLDLRQSNWVPRRGDQGPKTIDQIHKEAEMEEHREHIKVQQLMAKGSDKRRGGPPGPPINRGLPLVDDGGWNTVPISKGSRPIDTSRLTKITKPGSIDSNNQLFAPGGRLSWGKGSSGGSGAKPSDTASEATRPATLNRFSALQQTLPAENTDNRRVVQRSSLSRERGEKAGDRGDRLERSERGGDRGDRLDRARTPATKRSFSKEVEERSRERPSQPEGLRKAASLTEDRGRDPVKREATLPPVSPPKAALSVDEVEKKSKAIIEEYLHLNDMKEAVQCVQELASPSLLFIFVRLGIESTLERSTIAREHMGRLLHQLLCAGHLSTAQYYQGLYETLELAEDMEIDIPHVWLYLAELITPILQEDGVPMGELFREITKPLRPMGKATSLLLEILGLLCKSMGPKKVGMLWREAGLSWREFLAEGQDVGSFVAEKKVEYTLGEESEAPGQRTLAFEELRRQLEKLLKDGGSNQRVFDWIDANLNEQQIASNTLVRALMTTVCYSAIIFETPLRVDVQVLKVRARLLQKYLCDEQKELQALYALQALVVTLEQPANLLRMFFDALYDEDVVKEDAFYSWESSKDPAEQQGKGVALKSVTAFFNWLREAEDEESDHN | 1 | 0.83 |
